Assay results taken from IntAct's records for PubMed 15743816.

B1: Serine/threonine-protein kinase STE20 (Saccharomyces cerevisiae), Q03497 (parent)
chain: MSNDPSAVSELPDKDSLDNGISNDNERAMGGNGDGGDGLRLPRTTGTLNVNALQKGTNAAHEAGGYKSMDPAKNAETTNDDDNNVVSLDDPIQFTRVSSSSVISGMSSSMSPHSNIDETKSLEAVTPNINTSNITPDHSADNTFSTINASESDHQFNDTLLSKLSLTDSTETIENNATVKHQQPVASSTVNSNKSSTDIRRATPVSTPVISKPSMTTTPRQINSASHSLSNPKHKQHKPKVKPSKPEAKSKPVSVKKSFPSKNPLKNSSPPKKQTEKSYYSSSSKKRKSGSNSGTLRMKDVFTSFVQNIKRNSQDDKRASSSSNNSSSSSITTALRISTPYNAKHIHHVGVDSKTGEYTGLPEEWEKLLTSSGISKREQQQNMQAVMDIVKFYQDVTETNGEDKMFKTFNTTTGLPGSPQVSTPPANSFNKFPPSTSDSHNYGSRTGTPMSNHVMSPTLNTDSSSANGKFIPSRPAPKPPSSASASAPIIKSPVMNSAANVSPLKQTHAPTTPNRTSPNRSSISRNATLKKEEQPLPPIPPTKSKTSPIISTAHTPQQVAQSPKAPAQETVTTPTSKPAQARSLSKELNEKKREERERRKKQLYAKLNEICSDGDPSTKYANLVKIGQGASGGVYTAYEIGTNVSVAIKQMNLEKQPKKELIINEILVMKGSKHPNIVNFIDSYVLKGDLWVIMEYMEGGSLTDVVTHCILTEGQIGAVCRETLSGLEFLHSKGVLHRDIKSDNILLSMEGDIKLTDFGFCAQINELNLKRTTMVGTPYWMAPEVVSRKEYGPKVDIWSLGIMIIEMIEGEPPYLNETPLRALYLIATNGTPKLKEPENLSSSLKKFLDWCLCVEPEDRASATELLHDEYITEIAEANSSLAPLVKLARLKKVAENMDADEDNDDDNDNEHINKTNNCDDNNDSKETVNLDVTEDDKQK
partner: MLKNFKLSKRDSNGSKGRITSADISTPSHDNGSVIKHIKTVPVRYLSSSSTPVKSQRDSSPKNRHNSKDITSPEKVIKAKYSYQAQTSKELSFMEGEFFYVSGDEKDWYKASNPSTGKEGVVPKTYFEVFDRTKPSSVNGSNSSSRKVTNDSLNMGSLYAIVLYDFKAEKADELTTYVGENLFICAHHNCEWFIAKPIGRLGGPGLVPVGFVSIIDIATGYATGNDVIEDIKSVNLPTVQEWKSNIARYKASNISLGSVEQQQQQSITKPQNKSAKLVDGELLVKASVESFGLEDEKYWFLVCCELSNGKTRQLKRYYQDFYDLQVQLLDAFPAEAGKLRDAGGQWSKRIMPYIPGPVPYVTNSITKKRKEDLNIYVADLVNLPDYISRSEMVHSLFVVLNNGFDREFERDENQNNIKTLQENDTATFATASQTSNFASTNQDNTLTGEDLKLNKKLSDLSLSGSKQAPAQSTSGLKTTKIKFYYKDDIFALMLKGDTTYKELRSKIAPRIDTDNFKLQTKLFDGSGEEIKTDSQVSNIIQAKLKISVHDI
B2: Bud emergence protein 1 (Saccharomyces cerevisiae), P29366 (parent)
chain: B1 partner
partner: B1 chain
B3: Serine/threonine-protein kinase STE20 (Saccharomyces cerevisiae), Q03497 (parent)
chain: B1 chain
partner: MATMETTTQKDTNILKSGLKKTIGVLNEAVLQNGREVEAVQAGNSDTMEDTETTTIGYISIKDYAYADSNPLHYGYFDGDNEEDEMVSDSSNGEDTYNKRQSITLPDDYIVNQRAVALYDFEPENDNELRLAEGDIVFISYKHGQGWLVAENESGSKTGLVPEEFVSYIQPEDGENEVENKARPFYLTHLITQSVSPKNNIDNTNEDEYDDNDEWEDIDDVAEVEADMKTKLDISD

Variants of: B1
Conditions: with bem1_yeast BEM1, P29366

Effect of a mutation on the interaction, decreasing interaction:
F470G
I471G
P472A
S473A
R474G
P475G
P475G;P477A
A476G
P477A
P479A
P480A

Variants of: B1
Conditions: with bem1_yeast BEM1, P29366
Remark: another data set of the same source

Effect of a mutation on the interaction, decreasing interaction:
P475G;P477A

Variants of: B2
Conditions: with ste20_yeast STE20, Q03497

Effect of a mutation on the interaction, decreasing interaction:
W192A

Variants of: B3
Conditions: with nbp2_yeast NBP2, Q12163

Effect of a mutation on the interaction, decreasing interaction:
P475G;P477A
